{"source": "patent US20090136481A1", "biological_target": "recombinant myostatin", "test": "cell-based or functional assay"}
{"substance": "350 protein (dominant negative peptide of myostatin C-terminally truncated at amino acid 350; amino acids 267-350 of bovine myostatin) (from UniProt O18836 267-350)", "values": [{"measurement": "macrophage migration in chemotaxis assay (ZAMS medium with 5 µg/ml myostatin, with or without 350 protein)", "value": 20, "unit": "fold"}]}
